# In IntAct's records for PubMed 17069809:
# B1: Parabutoporin (Parabuthus schlechteri), P83312 (parent)
# chain: FKLGSFLKKAWKSKLAKKLRAKGKEMLKDYAKGLLEGGSEEVPGQ
# Variants of: B1
# Conditions: with kpca_human PRKCA
row,Variant,effect of a mutation on the interaction
1,FKLGAFLKKAWKAKLAKKLRAKGKEMLKDYAKGLLEGGSEEVPGQ,disrupting interaction
